Test results taken from patent US20220265819A1 (GEN2 NEUROSCIENCE, published 2022).
Changes are numbered by the printed parent chain.

B1: Clone 26 (VH4Vκ1), humanised variant of clone #28, human IgG1 (antibody, V domains shown)
VH: QVQLQESGPGLVKPSETLSLTCTVSGFSLNNYDMSWVRQAPGKGLEWIGTVSTTYRRYYASWAKGRFTISKDTSSTTVDLQMTSLTAEDTATYFCAASGIWGRGTLVTVSS
VL: AQVLTQSTSPLSASVGDRVTITCQSSQRVYSNYLAWYQQKPGQPPKRLIFLASTLESGVPSRFSGSGSGTEFTLTISSLQCDDFATYYCAGTYTGSIWAFGGGTEVVIK
notes: also called VH4VK1
B2: Clone 15 (VH1Vκ2), humanised variant of clone #28, human IgG1 (antibody, V domains shown)
VH: QSLQESGGGLVKPSETLSLTCTVSGFSLNNYDMSWVRQAPGKGLEWIGTVSTTYRRYYASWAKGRFTISKTSSTTVDLKMTSLTAEDTATYFCAASGIWGRGTLVTVSS
VL: B1 VL with T8P, P10T, C81P, E105K, V107E
notes: also called VH1VK2
B3: Clone 23 (VH3Vκ2), humanised variant of clone #28, human IgG1 (antibody, V domains shown)
VH: QVQLQESGPGLVKPSETLSLTCTVSGFSLNNYDMSWVRQAPGKGLEWIGTVSTTYRRYYASWAKGRFTISKTSSTTVDLQMTSLTAEDTATYFCAASGIWGRGTLVTVSS
VL: B1 VL with T8P, P10T, C81P, E105K, V107E
notes: also called VH3VK2
B4: Clone 20 (VH2Vκ4), humanised variant of clone #28, human IgG1 (antibody, V domains shown)
VH: B2 VH with G8P, K79Q
VL: B1 VL with A1D, Q2I, V3Q, L4M, T8P, P10T, C81P, E105K, V107E
notes: also called VH2VK4
B5: Clone 30 (VH5Vκ1), humanised variant of clone #28, human IgG1 (antibody, V domains shown)
VH: B1 VH with K71R, T73N, S75K, T76N, V78L
VL: B1 VL
notes: also called VH5VK1
B6: Clone 18 (VH2Vκ1), humanised variant of clone #28, human IgG1 (antibody, V domains shown)
VH: B2 VH with G8P, K79Q
VL: B1 VL
notes: also called VH2VK1
B7: Clone 36 (VH6Vκ4), humanised variant of clone #28, human IgG1 (antibody, V domains shown)
VH: B1 VH with S61D, W62S, A63V, K71R, T73N, S75K, T76N, V78L
VL: B1 VL with A1D, Q2I, V3Q, L4M, T8P, P10T, C81P, E105K, V107E
notes: also called VH6VK4
B8: Clone 25 (VH3Vκ5), humanised variant of clone #28, human IgG1 (antibody, V domains shown)
VH: B3 VH
VL: DIQMTQSPSTLSASVGDRVTITCQSSQRVSSSYLAWYQQKPGQPPKRLIFLASTLESGVPSRFSGSGSGTEFTLTISSLQPDDFATYYCAGTYTGSIWAFGGGTKVEIK
notes: also called VH3VK5
B9: Clone 35 (VH6Vκ2), humanised variant of clone #28, human IgG1 (antibody, V domains shown)
VH: B1 VH with S61D, W62S, A63V, K71R, T73N, S75K, T76N, V78L
VL: B1 VL with T8P, P10T, C81P, E105K, V107E
notes: also called VH6VK2
B10: Clone 33 (VH5Vκ5), humanised variant of clone #28, human IgG1 (antibody, V domains shown)
VH: B1 VH with K71R, T73N, S75K, T76N, V78L
VL: B8 VL
notes: also called VH5VK5
B11: Clone 37 (VH6Vκ5), humanised variant of clone #28, human IgG1 (antibody, V domains shown)
VH: B1 VH with S61D, W62S, A63V, K71R, T73N, S75K, T76N, V78L
VL: B8 VL
notes: also called VH6VK5
B12: Clone 21 (VH2Vκ5), humanised variant of clone #28, human IgG1 (antibody, V domains shown)
VH: B2 VH with G8P, K79Q
VL: B8 VL
notes: also called VH2VK5
B13: Clone 16 (VH1Vκ4), humanised variant of clone #28, human IgG1 (antibody, V domains shown)
VH: B2 VH
VL: B8 VL with S30Y, S32N
notes: also called VH1VK4
B14: Clone 22 (VH3Vκ1), humanised variant of clone #28, human IgG1 (antibody, V domains shown)
VH: B3 VH
VL: B1 VL
notes: also called VH3VK1
B15: Clone 14 (VH1Vκ1), humanised variant of clone #28, human IgG1 (antibody, V domains shown)
VH: B2 VH
VL: B1 VL
notes: also called VH1VK1
B16: Clone 29 (VH4Vκ5), humanised variant of clone #28, human IgG1 (antibody, V domains shown)
VH: B1 VH
VL: B8 VL
notes: also called VH4VK5
B17: Clone 34 (VH6Vκ1), humanised variant of clone #28, human IgG1 (antibody, V domains shown)
VH: B1 VH with S61D, W62S, A63V, K71R, T73N, S75K, T76N, V78L
VL: B1 VL
notes: also called VH6VK1
B18: Clone 19 (VH2Vκ2), humanised variant of clone #28, human IgG1 (antibody, V domains shown)
VH: B2 VH with G8P, K79Q
VL: B1 VL with T8P, P10T, C81P, E105K, V107E
notes: also called VH2VK2
B19: Clone 17 (VH1Vκ5), humanised variant of clone #28, human IgG1 (antibody, V domains shown)
VH: B2 VH
VL: B8 VL
notes: also called VH1VK5

Tests used:
[1] = target: T1, full length recombinant human 2N4R tau (amino acids 1-441) (human, UniProt P10636 1-758); assay: SPR Biacore SCK, IgG on Protein A, tau analyte
T1 construct: Bought (rPeptide); recombinant, non-phosphorylated; also called recombinant tau
Description: 23.5 Assessment of antibody binding to tau (Biacore SCK analysis): Binding of anti-tau hIgG1 to full length recombinant 2N4R tau (Rpeptide; SEQ ID NO: 2) was assessed using the Biacore T200 (GE Healthcare, Chicago, Ill., USA) running Biacore T200 Evaluation Software V2.0.1. hIgG1 were immobilised on a Protein A capture sensor chip in running buffer (HBS-EP+ buffer containing 1 mg/mL BSA) at 25° C. captured to ˜50 RU at 10 μL/min. For single-cycle kinetics experiments, recombinant 2N4R tau was flowed at concentrations ranging from 5 nM to 40 nM (2-fold dilutions) with an association time of 150 s and a dissociation time of 200 s. Curves were compared to a reference cell that was mock immobilized (no antibody present).
Data were analysed using Langmuir (1:1) binding analysis, describing a 1:1 interaction at the surface: […]

Bovine serum albumin = target: T2, Bovine serum albumin (bovine, UniProt P02769 25-607); assay: ELISA on 1% BSA, HEK supernatant, anti-human IgG-HRP, n=1
T2 construct: Negative control antigen in ELISA; also called BSA
Description: Antigen was removed from wells and the plates were then blocked for 1 hour at RT with 5% dried milk in 1×TBS. Blocking solution was removed, HEK293 cell supernatant (1:100 in 1% BSA/1×TBS) was added to relevant wells, and plates were incubated for 1 hour at RT with gentle shaking. Plates were then washed four times with TBS/0.1% Tween (TBST). Goat-anti-human IgG-HRP antibody (ThermoFisher Scientific, Waltham, Mass. USA), diluted 1:2000 in 5% milk/TBS, was added to each well and plates were incubated for 1 hour at RT with gentle shaking before being washed four times with TBST. 3,3′,5,5′-tetramethylbenzidine (TMB) ELISA solution was added to each well and plates were incubated for 15 mins at RT. An equal volume of 1 M sulfuric acid was added to each well and OD was measured at 450 nm.

T2 sequence (P02769 25-607 limits assumed): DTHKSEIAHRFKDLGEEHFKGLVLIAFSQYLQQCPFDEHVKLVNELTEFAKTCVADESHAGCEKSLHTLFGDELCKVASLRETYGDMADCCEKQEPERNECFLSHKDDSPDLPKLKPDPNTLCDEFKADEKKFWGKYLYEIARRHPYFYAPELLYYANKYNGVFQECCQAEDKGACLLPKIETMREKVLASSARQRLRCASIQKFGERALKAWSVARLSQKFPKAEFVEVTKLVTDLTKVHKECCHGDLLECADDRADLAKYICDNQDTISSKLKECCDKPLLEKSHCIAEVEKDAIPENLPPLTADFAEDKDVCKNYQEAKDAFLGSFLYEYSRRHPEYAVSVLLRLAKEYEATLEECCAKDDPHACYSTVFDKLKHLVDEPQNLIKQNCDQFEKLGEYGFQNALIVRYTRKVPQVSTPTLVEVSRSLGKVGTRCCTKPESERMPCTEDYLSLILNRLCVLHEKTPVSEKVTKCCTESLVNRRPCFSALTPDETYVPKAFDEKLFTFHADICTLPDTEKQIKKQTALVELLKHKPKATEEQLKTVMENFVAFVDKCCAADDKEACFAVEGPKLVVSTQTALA
T1 sequence (P10636 other isoform, or with tags, fused parts or gaps limits assumed): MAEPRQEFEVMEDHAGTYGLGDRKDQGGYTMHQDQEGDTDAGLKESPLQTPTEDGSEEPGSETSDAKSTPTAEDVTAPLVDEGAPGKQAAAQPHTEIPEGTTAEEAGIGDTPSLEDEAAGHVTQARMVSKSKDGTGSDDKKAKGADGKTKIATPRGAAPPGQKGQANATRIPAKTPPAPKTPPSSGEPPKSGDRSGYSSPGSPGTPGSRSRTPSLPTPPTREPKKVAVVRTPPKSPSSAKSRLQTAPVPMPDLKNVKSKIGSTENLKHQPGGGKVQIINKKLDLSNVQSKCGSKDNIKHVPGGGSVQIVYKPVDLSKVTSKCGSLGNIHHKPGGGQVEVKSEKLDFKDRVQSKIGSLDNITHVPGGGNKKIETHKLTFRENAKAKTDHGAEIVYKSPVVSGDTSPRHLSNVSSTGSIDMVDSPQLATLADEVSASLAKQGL

Binder	Kd [1] [nM]	Relative KD [1] [fold vs VH0VK0]	koff [1] [s⁻¹]	kon [1] [M⁻¹ s⁻¹]	binding result (Bovine serum albumin)
B1	57.6	1.27	0.00336	58300	no binding (tested: supernatant 1:100)
B2	44.1	0.97	0.00294	66800	no binding (tested: supernatant 1:100)
B3	51.3	1.13	0.00253	49400	no binding (tested: supernatant 1:100)
B4	38	0.84	0.00234	61500	no binding (tested: supernatant 1:100)
B5	75.7	1.67	0.00351	46300	no binding (tested: supernatant 1:100)
B6	49.2	1.09	0.0033	67100	no binding (tested: supernatant 1:100)
B7	123	2.72	0.00406	33100	no binding (tested: supernatant 1:100)
B8	38.9	0.86	0.00316	81300	no binding (tested: supernatant 1:100)
B9	222	4.9	0.00533	24000	no binding (tested: supernatant 1:100)
B10	60.6	1.34	0.00354	58400	no binding (tested: supernatant 1:100)
B11	123	2.72	0.00544	44300	no binding (tested: supernatant 1:100)
B12	136	3	0.00523	38500	no binding (tested: supernatant 1:100)
B13	31.2	0.69	0.00207	66300	no binding (tested: supernatant 1:100)
B14	43.9	0.97	0.00249	56700	no binding (tested: supernatant 1:100)
B15	36.6	0.81	0.00308	84000	no binding (tested: supernatant 1:100)
B16	114	2.52	0.00409	35900	no binding (tested: supernatant 1:100)
B17	141	3.11	0.00525	37300	no binding (tested: supernatant 1:100)
B18	67.3	1.49	0.00324	48100	no binding (tested: supernatant 1:100)
B19	41.1	0.91	0.00428	104000	no binding (tested: supernatant 1:100)
